Experimental data: article PMC9241269

Molecular target: SYT11 (UniProt Q9BT88)
Assay: co-IP with anti-Myc, blot for GFP-SYT11
Conditions: reference: Myc-JNK1 wild type

binding against the reference (sites T183) | binding against the reference (sites Y185) | Substance
lost |  | JNK1 (from UniProt P45983) Myc-JNK1 T183A
 | lost | JNK1 (from UniProt P45983) Myc-JNK1 Y185F
